Article PMC11574045, “A cofactor-induced repressive type of transcription factor condensation can be induced by synthetic peptides to suppress tumorigenesis” (The EMBO Journal, 2024)

system: HEK293FT cells transfected with TF library; assay: Screening of TF condensates based on fluorescent puncta; type: cell-based; settings: Figure 1B numerical data; TF library screen, one value per transcriptional factor
Outline: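 Cells were seeded onto plasmid/PEI-loaded wells (plasmid 1.6 μg/ml final) and grown 60 h. Medium with or without glucose followed for 12 h. Fixed, permeabilized cells were stained against Flag or GAL4 tags, and condensate puncta were quantified from 50 random fields per well.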

Molecule | Z score of condensed fraction
SALL1 (protein, UniProt Q9NSC2 1-1324, looked up) Sal-like protein 1: MSRRKQAKPQHFQSDPEVASLPRRDGDTEKGQPSRPTKSKDAHVCGRCCAEFFELSDLLLHKKNCTKNQLVLIVNENPASPPETFSPSPPPDNPDEQMNDTVNKTDQVDCSDLSEHNGLDREESMEVEAPVANKSGSGTSSGSHSSTAPSSSSSSSSSSGGGGSSSTGTSAITTSLPQLGDLTTLGNFSVINSNVIIENLQSTKVAVAQFSQEARCGGASGGKLAVPALMEQLLALQQQQIHQLQLIEQIRHQILLLASQNADLPTSSSPSQGTLRTSANPLSTLSSHLSQQLAAAAGLAQSLASQSASISGVKQLPPIQLPQSSSGNTIIPSNSGSSPNMNILAAAVTTPSSEKVASSAGASHVSNPAVSSSSSPAFAISSLLSPASNPLLPQQASANSVFPSPLPNIGTTAEDLNSLSALAQQRKSKPPNVTAFEAKSTSDEAFFKHKCRFCAKVFGSDSALQIHLRSHTGERPFKCNICGNRFSTKGNLKVHFQRHKEKYPHIQMNPYPVPEHLDNIPTSTGIPYGMSIPPEKPVTSWLDTKPVLPTLTTSVGLPLPPTLPSLIPFIKTEEPAPIPISHSATSPPGSVKSDSGGPESATRNLGGLPEEAEGSTLPPSGGKSEESGMVTNSVPTASSSVLSSPAADCGPAGSATTFTNPLLPLMSEQFKAKFPFGGLLDSAQASETSKLQQLVENIDKKATDPNECIICHRVLSCQSALKMHYRTHTGERPFKCKICGRAFTTKGNLKTHYSVHRAMPPLRVQHSCPICQKKFTNAVVLQQHIRMHMGGQIPNTPVPDSYSESMESDTGSFDEKNFDDLDNFSDENMEDCPEGSIPDTPKSADASQDSLSSSPLPLEMSSIAALENQMKMINAGLAEQLQASLKSVENGSIEGDVLTNDSSSVGGDMESQSAGSPAISESTSSMQALSPSNSTQEFHKSPSIEEKPQRAVPSEFANGLSPTPVNGGALDLTSSHAEKIIKEDSLGILFPFRDRGKFKNTACDICGKTFACQSALDIHYRSHTKERPFICTVCNRGFSTKGNLKQHMLTHQMRDLPSQLFEPSSNLGPNQNSAVIPANSLSSLIKTEVNGFVHVSPQDSKDTPTSHVPSGPLSSSATSPVLLPALPRRTPKQHYCNTCGKTFSSSSALQIHERTHTGEKPFACTICGRAFTTKGNLKVHMGTHMWNSTPARRGRRLSVDGPMTFLGGNPVKFPEMFQKDLAARSGSGDPSSFWNQYAAALSNGLAMKANEISVIQNGGIPPIPGSLGSGNSSPVSGLTGNLERLQNSEPNAPLAGLEKMASSENGTNFRFTRFVEDSKEIVTS | -0.9814
SCAND1 (protein, UniProt P57086 1-179, looked up) SCAN domain-containing …: MAATEPILAATGSPAAVPPEKLEGAGSSSAPERNCVGSSLPEASPPAPEPSSPNAAVPEAIPTPRAAASAALELPLGPAPVSVAPQAEAEARSTPGPAGSRLGPETFRQRFRQFRYQDAAGPREAFRQLRELSRQWLRPDIRTKEQIVEMLVQEQLLAILPEAARARRIRRRTDVRITG | -0.8992
SCRT1 (protein, UniProt Q99M85 1-348, looked up) Transcriptional repressor …: MPRSFLVKKVKLDTFSSADLDSSYGRARSDLGVRLQDKGYLSDYVGPASVYDGDAEAALLKGPSPEPMYAAAVRGELGPAASGSAPPPTPRPELATAAGGYINGDAAVSEGYAADAFFITDGRSRRKAANANAAAAPSTASVAAPDSDAGGGGGPGTRGSGSGSASRGGTRVGAGTEARAGSGATGAGGRHACGECGKTYATSSNLSRHKQTHRSLDSQLARRCPTCGKVYVSMPAMAMHLLTHDLRHKCGVCGKAFSRPWLLQGHMRSHTGEKPFGCAHCGKAFADRSNLRAHMQTHSAFKHFQCKRCKKSFALKSYLNKHYESACFKGGASGPATPAPPQLSPVQA | 0.5906
SCX (protein, UniProt Q7RTU7 1-201, looked up) Basic helix-loop-helix …: MSFATLRPAPPGRYLYPEVSPLSEDEDRGSDSSGSDEKPCRVHAARCGLQGARRRAGGRRAGGGGPGGRPGREPRQRHTANARERDRTNSVNTAFTALRTLIPTEPADRKLSKIETLRLASSYISHLGNVLLAGEACGDGQPCHSGPAFFHAARAGSPPPPPPPPPARDGENTQPKQICTFCLSNQRKLSKDRDRKTAIRS | -0.06618
SETD7 (protein, UniProt Q8WTS6 1-366, looked up) Histone-lysine …: MDSDDEMVEEAVEGHLDDDGLPHGFCTVTYSSTDRFEGNFVHGEKNGRGKFFFFDGSTLEGYYVDDALQGQGVYTYEDGGVLQGTYVDGELNGPAQEYDTDGRLIFKGQYKDNIRHGVCWIYYPDGGSLVGEVNEDGEMTGEKIAYVYPDERTALYGKFIDGEMIEGKLATLMSTEEGRPHFELMPGNSVYHFDKSTSSCISTNALLPDPYESERVYVAESLISSAGEGLFSKVAVGPNTVMSFYNGVRITHQEVDSRDWALNGNTLSLDEETVIDVPEPYNHVSKYCASLGHKANHSFTPNCIYDMFVHPRFGPIKCIRTLRAVEADEELTVAYGYDHSPPGKSGPEAPEWYQVELKAFQATQQK | 0.4495
SETD8 (protein, UniProt Q9NQR1 1-393, looked up) N-lysine methyltransferase …: MGEGGAAAALVAAAAAAAAAAAAVVAGQRRRRLGRRARCHGPGRAAGGKMSKPCAVEAAAAAVAATAPGPEMVERRGPGRPRTDGENVFTGQSKIYSYMSPNKCSGMRFPLQEENSVTHHEVKCQGKPLAGIYRKREEKRNAGNAVRSAMKSEEQKIKDARKGPLVPFPNQKSEAAEPPKTPPSSCDSTNAAIAKQALKKPIKGKQAPRKKAQGKTQQNRKLTDFYPVRRSSRKSKAELQSEERKRIDELIESGKEEGMKIDLIDGKGRGVIATKQFSRGDFVVEYHGDLIEITDAKKREALYAQDPSTGCYMYYFQYLSKTYCVDATRETNRLGRLINHSKCGNCQTKLHDIDGVPHLILIASRDIAAGEELLYDYGDRSKASIEAHPWLKH | -0.8816
SIM1 (protein, UniProt P81133 1-766, looked up) Single-minded homolog 1: MKEKSKNAARTRREKENSEFYELAKLLPLPSAITSQLDKASIIRLTTSYLKMRVVFPEGLGEAWGHSSRTSPLDNVGRELGSHLLQTLDGFIFVVAPDGKIMYISETASVHLGLSQVELTGNSIYEYIHPADHDEMTAVLTAHQPYHSHFVQEYEIERSFFLRMKCVLAKRNAGLTCGGYKVIHCSGYLKIRQYSLDMSPFDGCYQNVGLVAVGHSLPPSAVTEIKLHSNMFMFRASLDMKLIFLDSRVAELTGYEPQDLIEKTLYHHVHGCDTFHLRCAHHLLLVKGQVTTKYYRFLAKHGGWVWVQSYATIVHNSRSSRPHCIVSVNYVLTDTEYKGLQLSLDQISASKPAFSYTSSSTPTMTDNRKGAKSRLSSSKSKSRTSPYPQYSGFHTERSESDHDSQWGGSPLTDTASPQLLDPADRPGSQHDASCAYRQFSDRSSLCYGFALDHSRLVEERHFHTQACEGGRCEAGRYFLGTPQAGREPWWGSRAALPLTKASPESREAYENSMPHIASVHRIHGRGHWDEDSVVSSPDPGSASESGDRYRTEQYQSSPHEPSKIETLIRATQQMIKEEENRLQLRKAPSDQLASINGAGKKHSLCFANYQQPPPTGEVCHGSALANTSPCDHIQQREGKMLSPHENDYDNSPTALSRISSPNSDRISKSSLILAKDYLHSDISPHQTAGDHPTVSPNCFGSHRQYFDKHAYTLTGYALEHLYDSETIRNYSLGCNGSHFDVTSHLRMQPDPAQGHKGTSVIITNGS | -1.099
SIRT2 (protein, UniProt Q8IXJ6 2-389, looked up) NAD-dependent protein …: AEPDPSHPLETQAGKVQEAQDSDSDSEGGAAGGEADMDFLRNLFSQTLSLGSQKERLLDELTLEGVARYMQSERCRRVICLVGAGISTSAGIPDFRSPSTGLYDNLEKYHLPYPEAIFEISYFKKHPEPFFALAKELYPGQFKPTICHYFMRLLKDKGLLLRCYTQNIDTLERIAGLEQEDLVEAHGTFYTSHCVSASCRHEYPLSWMKEKIFSEVTPKCEDCQSLVKPDIVFFGESLPARFFSCMQSDFLKVDLLLVMGTSLQVQPFASLISKAPLSTPRLLINKEKAGQSDPFLGMIMGLGGGMDFDSKKAYRDVAWLGECDQGCLALAELLGWKKELEDLVRREHASIDAQSGAGVPNPSTSASPKKSPPPAKDEARTTEREKPQ | 0.4793
BCL11A (protein, UniProt Q9H165 1-835, looked up) BCL11 transcription factor A: MSRRKQGKPQHLSKREFSPEPLEAILTDDEPDHGPLGAPEGDHDLLTCGQCQMNFPLGDILIFIEHKRKQCNGSLCLEKAVDKPPSPSPIEMKKASNPVEVGIQVTPEDDDCLSTSSRGICPKQEHIADKLLHWRGLSSPRSAHGALIPTPGMSAEYAPQGICKDEPSSYTCTTCKQPFTSAWFLLQHAQNTHGLRIYLESEHGSPLTPRVGIPSGLGAECPSQPPLHGIHIADNNPFNLLRIPGSVSREASGLAEGRFPPTPPLFSPPPRHHLDPHRIERLGAEEMALATHHPSAFDRVLRLNPMAMEPPAMDFSRRLRELAGNTSSPPLSPGRPSPMQRLLQPFQPGSKPPFLATPPLPPLQSAPPPSQPPVKSKSCEFCGKTFKFQSNLVVHRRSHTGEKPYKCNLCDHACTQASKLKRHMKTHMHKSSPMTVKSDDGLSTASSPEPGTSDLVGSASSALKSVVAKFKSENDPNLIPENGDEEEEEDDEEEEEEEEEEEEELTESERVDYGFGLSLEAARHHENSSRGAVVGVGDESRALPDVMQGMVLSSMQHFSEAFHQVLGEKHKRGHLAEAEGHRDTCDEDSVAGESDRIDDGTVNGRGCSPGESASGGLSKKLLLGSPSSLSPFSKRIKLEKEFDLPPAAMPNTENVYSQWLAGYAASRQLKDPFLSFGDSRQSPFASSSEHSSENGSLRFSTPPGELDGGISGRSGTGSGGSTPHISGPGPGRPSSKEGRRSDTCEYCGKVFKNCSNLTVHRRSHTGERPYKCELCNYACAQSSKLTRHMKTHGQVGKDVYKCEICKMPFSVYSTLEKHMKKWHSDRVLNNDIKTE | -0.5173
SIX1 (protein, UniProt Q15475 1-284, looked up) Homeobox protein SIX1: MSMLPSFGFTQEQVACVCEVLQQGGNLERLGRFLWSLPACDHLHKNESVLKAKAVVAFHRGNFRELYKILESHQFSPHNHPKLQQLWLKAHYVEAEKLRGRPLGAVGKYRVRRKFPLPRTIWDGEETSYCFKEKSRGVLREWYAHNPYPSPREKRELAEATGLTTTQVSNWFKNRRQRDRAAEAKERENTENNNSSSNKQNQLSPLEGGKPLMSSSEEEFSPPQSPDQNSVLLLQGNMGHARSSNYSLPGLTASQPSHGLQTHQHQLQDSLLGPLTSSLVDLGS | -0.6669
SIX2 (protein, UniProt Q9NPC8 1-291, looked up) Homeobox protein SIX2: MSMLPTFGFTQEQVACVCEVLQQGGNIERLGRFLWSLPACEHLHKNESVLKAKAVVAFHRGNFRELYKILESHQFSPHNHAKLQQLWLKAHYIEAEKLRGRPLGAVGKYRVRRKFPLPRSIWDGEETSYCFKEKSRSVLREWYAHNPYPSPREKRELAEATGLTTTQVSNWFKNRRQRDRAAEAKERENNENSNSNSHNPLNGSGKSVLGSSEDEKTPSGTPDHSSSSPALLLSPPPPGLPSLHSLGHPPGPSAVPVPVPGGGGADPLQHHHGLQDSILNPMSANLVDLGS | -0.1884
